Test results: paper PMC1847684, “Isolation and functional characterization of a cDNA coding a hydroxycinnamoyltransferase involved in phenylpropanoid biosynthesis in Cynara cardunculus L” (BMC Plant Biology, 2007)

What was measured:
Experiment in all cases: HPLC product assay, Lineweaver-Burk
Format in all cases: biochemical, Cynara cardunculus
[1] = substrate: CC(C)(COP(=O)(O)OP(=O)(O)OC[C@H]1O[C@@H](n2cnc3c(N)ncnc32)[C@H](O)[C@@H]1OP(=O)(O)O)[C@@H](O)C(=O)NCCC(=O)NCCSC(=O)/C=C/c1ccc(O)c(O)c1; conditions: 20 mM quinate as acceptor, sodium phosphate pH 7.5, 1 mM DTT, 30 C
Source text: (§1) HPLC product assay, Lineweaver-Burk on HCT (globe artichoke hydroxycinnamoyltransferase; CcHCT)

[2] = substrate: CC(C)(COP(=O)(O)OP(=O)(O)OC[C@H]1O[C@@H](n2cnc3c(N)ncnc32)[C@H](O)[C@@H]1OP(=O)(O)O)[C@@H](O)C(=O)NCCC(=O)NCCSC(=O)/C=C/c1ccc(O)cc1; conditions: 20 mM quinate as acceptor, sodium phosphate pH 7.5, 1 mM DTT, 30 C, recombinant bacterial extract (discussion says purified, no purification described)
Source text: as §1

[3] = substrate: O=C(O)[C@]1(O)C[C@@H](O)[C@@H](O)[C@H](O)C1; conditions: 300 μM p-coumaroyl-CoA as donor, sodium phosphate pH 7.5, 1 mM DTT, 30 C
Source text: as §1

B1: HCT (globe artichoke hydroxycinnamoyltransferase; CcHCT) (Cynara cardunculus) (protein)
chain: MKIEVRESTMVRPAEETPRINLWNSNVDLVVPNFHTPSVYFYRPNGAANFFDPKVMKDALSRALVPFYPMGGRLKRDEDGRIEIDCQGQGVLFVEAESDGVIDDFGDFAPTLELRKLIPAVDYTLGIESYSLLVLQVTYFKCGGVSLGVGMQHHAADGASGLHFINTWSDLARGLDLAVPPFIDRTLLRSRDPPQPAFDHIEYQPAPPMKTAPTPTPTDDESVPETTVSIFKLTRDQVNALKGKSKEDGNTVNYSSYEMLSGHVWRCVCKARGLPDDQDTKLYIATDGRARLRPSLPRGYFGNVIFTTTPIAVAGDLQSKPTWYAASKIHDALARMDDDYLKSALDYLELQPDLKALVRGAHTFKCPNLGITSWARLPIHDADFGWGRPIFMGPGGIAYEGLSFVLPSPINDGSLSIVISLQAEHMKLFSKFLYDI
notes: full-length ORF (1308 bp, 436 residues printed, ~50 kDa), pET3a NdeI/BamHI, no tag mentioned, E. coli BL21(DE3) pLysE at 28 C
[1]
  Km: 61.75 ± 0.004 µM
  Vmax: 0.0402 µmol/min/mg
  Vmax/Km: 600 µL/min/mg
[2]
  Km: 53.0 ± 13.0 µM
  Vmax: 0.132 µmol/min/mg
  Vmax/Km: 2460 µL/min/mg
[3]
  Km: 9200 ± 5600 µM
  Vmax: 0.126 µmol/min/mg
  Vmax/Km: 12 µL/min/mg
